# Substitutions are numbered along the chain they refer to. Names and notes keep the numbering of the source.
# B1: S320I_I328V tau peptide (295-330) (peptide, UniProt P10636-8 295-330, looked up)
# peptide: Ac-DNIKHVPGGGSVQIVYKPVDLSKVTIKCGSLGNVHH-NH2
# notes: numbers count on: 2N4R tau (P10636-8); source: synthetic peptide (Genscript, > 95% purity)
# B2: S320F_(295-330) tau peptide (peptide, UniProt P10636-8 295-330, looked up)
# peptide: Ac-DNIKHVPGGGSVQIVYKPVDLSKVTFKCGSLGNIHH-NH2
# notes: as for B1
# B3: S320V tau peptide (295-330) (peptide, UniProt P10636-8 295-330, looked up)
# peptide: Ac-DNIKHVPGGGSVQIVYKPVDLSKVTVKCGSLGNIHH-NH2
# notes: as for B1
# B4: S320F_(306-324) tau peptide (peptide, UniProt P10636-8 306-324, looked up)
# peptide: Ac-VQIVYKPVDLSKVTFKCGS-NH2
# notes: as for B1
# B5: S320F_(295-324) tau peptide (peptide, UniProt P10636-8 295-324, looked up)
# peptide: DNIKHVPGGGSVQIVYKPVDLSKVTFKCGS
# notes: numbers count on: 2N4R tau (P10636-8); probably synthesised, acetylated and amidated like the others
# B6: P301S_(295-330) tau peptide (peptide, UniProt P10636-8 295-330, looked up)
# peptide: Ac-DNIKHVSGGGSVQIVYKPVDLSKVTSKCGSLGNIHH-NH2
# notes: as for B1
# B7: L315S_S320F_(295-330) tau peptide (peptide, UniProt P10636-8 295-330, looked up)
# peptide: Ac-DNIKHVPGGGSVQIVYKPVDSSKVTFKCGSLGNIHH-NH2
# notes: as for B1
# B8: S320F_(306-330) tau peptide (peptide, UniProt P10636-8 306-330, looked up)
# peptide: Ac-VQIVYKPVDLSKVTFKCGSLGNIHH-NH2
# notes: as for B1
# B9: S324F_(295-330) tau peptide (peptide, UniProt P10636-8 295-330, looked up)
# peptide: Ac-DNIKHVPGGGSVQIVYKPVDLSKVTSKCGFLGNIHH-NH2
# notes: as for B1
# B10: WT_(306-324) tau peptide (peptide, UniProt P10636-8 306-324, looked up)
# peptide: Ac-VQIVYKPVDLSKVTSKCGS-NH2
# notes: as for B1
# B11: WT_(295-324) tau peptide (peptide, UniProt P10636-8 295-324, looked up)
# peptide: B5 peptide with F26S
# notes: as for B5
# B12: WT_(295-330) tau peptide (peptide, UniProt P10636-8 295-330, looked up)
# peptide: Ac-DNIKHVPGGGSVQIVYKPVDLSKVTSKCGSLGNIHH-NH2
# notes: as for B1
# B13: S320I tau peptide (295-330) (peptide, UniProt P10636-8 295-330, looked up)
# peptide: Ac-DNIKHVPGGGSVQIVYKPVDLSKVTIKCGSLGNIHH-NH2
# notes: as for B1
# B14: S320F_L325S_(295-330) tau peptide (peptide, UniProt P10636-8 295-330, looked up)
# peptide: Ac-DNIKHVPGGGSVQIVYKPVDLSKVTFKCGSSGNIHH-NH2
# notes: as for B1
# B15: S320F_I328S_(295-330) tau peptide (peptide, UniProt P10636-8 295-330, looked up)
# peptide: Ac-DNIKHVPGGGSVQIVYKPVDLSKVTFKCGSLGNSHH-NH2
# notes: as for B1
# B16: WT_(306-330) tau peptide (peptide, UniProt P10636-8 306-330, looked up)
# peptide: Ac-VQIVYKPVDLSKVTSKCGSLGNIHH-NH2
# notes: as for B1
# B17: P301S_I328S_(295-330) tau peptide (peptide, UniProt P10636-8 295-330, looked up)
# peptide: Ac-DNIKHVSGGGSVQIVYKPVDLSKVTSKCGSLGNSHH-NH2
# notes: as for B1
# Biological target: the molecule itself
# Assay: ThT fluorescence aggregation assay + negative-stain TEM; self-assembly of tau peptides at 200 µM; 1x PBS, 2 mM TCEP, pH 7, 25 µM ThT, 72 h; TEM of the endpoint
row,Protein,binding result
1,B1,binds
2,B2,binds
3,B3,binds
4,B4,binds
5,B5,binds
6,B6,binds
7,B7,binds
8,B8,binds
9,B9,binds
10,B10,binds
11,B11,binds
12,B12,binds
13,B13,binds
14,B14,binds
15,B15,binds
16,B16,binds
17,B17,binds

# — publication PMC10036635, “FTD-tau S320F mutation stabilizes local structure and allosterically promotes amyloid motif-dependent aggregation” (Nature Communications, 2023)
